The target of one experiment is T1, rCRFR1 (Rattus norvegicus, UniProt P35353).
T1 construct: expressed in transfected cells; host or cells: HEK 293 cells, stably transfected (HEK-rCRFR1)
T1 sequence (P35353 24-415): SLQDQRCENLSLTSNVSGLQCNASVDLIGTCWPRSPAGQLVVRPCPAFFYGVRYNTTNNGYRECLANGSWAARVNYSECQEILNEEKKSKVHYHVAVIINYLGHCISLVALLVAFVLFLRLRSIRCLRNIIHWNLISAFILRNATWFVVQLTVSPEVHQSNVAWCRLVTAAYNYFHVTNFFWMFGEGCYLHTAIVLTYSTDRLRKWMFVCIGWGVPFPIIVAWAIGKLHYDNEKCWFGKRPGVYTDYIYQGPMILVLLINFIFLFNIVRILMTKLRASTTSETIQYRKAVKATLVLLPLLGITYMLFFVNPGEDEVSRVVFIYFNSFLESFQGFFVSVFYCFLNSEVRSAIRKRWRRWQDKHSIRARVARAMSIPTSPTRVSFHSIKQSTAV
Briefly: cAMP stimulation / inhibition of oCRF-stimulated cAMP production in HEK-rCRFR1 cells. It counts as cell-based. The following applies: HEK-rCRFR1 cells; difference significant. The essentials: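 HEK cells expressing rat CRFR1 or mouse CRFR2β were treated with CRF agonists, with or without antagonist at 1 μM or 10 nM, or with antagonist (1 μM) alone. Cells were lysed in 6% TCA (5 min, 100° C.), and cAMP was measured by RIA.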
On the technique in general: Cyclic AMP is a second messenger, typically raised through Gs and lowered through Gi signalling.

The target in the next experiment is T2, CRFR2α (Mus musculus, UniProt Q60748).
T2 construct: from tissue; host or cells: lateral septum of BALB/c mice, in vivo
To be noted: BALB/c mice; brain area exclusively expressing CRF2α-mRNA; cited from earlier work.

Experiment [1] deals with mouse CRF receptor, type 2β (mCRFR2β) (mouse) (UniProt Q60748). The experiment is described as follows: radioligand binding to membranes of HEK-mCRFR2β cells, displaced by Svg.
The target in experiment [2] is T3, rat CRF receptor, type 1 (rCRFR1) (rat, UniProt P35353 24-415).
T3 sequence (looked up): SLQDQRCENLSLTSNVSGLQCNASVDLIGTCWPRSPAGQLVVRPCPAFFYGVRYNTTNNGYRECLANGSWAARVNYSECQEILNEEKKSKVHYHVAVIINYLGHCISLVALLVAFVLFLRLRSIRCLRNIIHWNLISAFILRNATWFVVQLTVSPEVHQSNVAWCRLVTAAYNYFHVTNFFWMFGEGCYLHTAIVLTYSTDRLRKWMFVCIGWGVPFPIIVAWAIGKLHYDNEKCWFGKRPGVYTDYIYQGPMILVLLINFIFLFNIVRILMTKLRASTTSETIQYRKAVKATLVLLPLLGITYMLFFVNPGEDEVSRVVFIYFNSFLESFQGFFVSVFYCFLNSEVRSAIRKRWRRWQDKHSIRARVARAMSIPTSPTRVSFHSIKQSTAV
The experiment is described as follows: cell-based or functional assay.

Experiment [3] concerns the target T3, rat CRF receptor, type 1 (rCRFR1). The experiment is described as follows: cell-based or functional assay. This is another data set of the same source.
For experiment [4] the target is unchanged. The experiment is described as follows: cell-based or functional assay. The source holds these as a separate data set.
Experiment [5] has as its target mouse CRF receptor, type 2β (mCRFR2β) (mouse) (UniProt Q60748). The experiment is described as follows: Kd(rCRFR1)/Kd(mCRFR2β) of the peptide normalised to that of astressin; radioligand displacement. (Loss of bound radioactivity is the signal in a displacement assay; it reports binding, not function.)
For experiment [6], the target named is T3, rat CRF receptor, type 1 (rCRFR1). The experiment is described as follows: radioligand displacement; this end of the range tied by the Kd ratio of Table 3 (220.9/153.6). As for the experimental part:
(§1) Binding assays were performed in 96-well MultiScreen plates (Millipore, Eschborn, Germany) with GF/B filters (pore size 1.0 μm). […] After incubation (60 min, 23° C.), membrane suspension was aspirated through the plate, followed by two washes with assay buffer (0.2 ml, 23°). Radioactivity of the punched filters was measured with a 1470 WIZARD automatic gamma counter (Berthold, Hannover). […] Statistical analysis was performed with ANOVA, and significant differences between groups were determined by post hoc comparison using the Dunn test.

For experiment [7] the target is unchanged. Briefly: displacement of [125I-Tyr0]oCRF from HEK-rCRFR1 membranes. As for the experimental part: as §1
Experiment [8] has as its target mouse CRF receptor, type 2β (mCRFR2β) (mouse) (UniProt Q60748). The experiment is described as follows: radioligand displacement; this end of the range tied by the Kd ratio of Table 3 (20.8/3.5).

Consider 5 molecules from patent publication US6846803B1, “Antagonists specific for the corticotropin-releasing factor receptor type 2 (CRFR2)” (priority 1998, dated 2005).

As usually defined, the Kd is the equilibrium constant for the complex coming apart.

No end group written: not given here.

T2 sequence (Q60748 whole entry): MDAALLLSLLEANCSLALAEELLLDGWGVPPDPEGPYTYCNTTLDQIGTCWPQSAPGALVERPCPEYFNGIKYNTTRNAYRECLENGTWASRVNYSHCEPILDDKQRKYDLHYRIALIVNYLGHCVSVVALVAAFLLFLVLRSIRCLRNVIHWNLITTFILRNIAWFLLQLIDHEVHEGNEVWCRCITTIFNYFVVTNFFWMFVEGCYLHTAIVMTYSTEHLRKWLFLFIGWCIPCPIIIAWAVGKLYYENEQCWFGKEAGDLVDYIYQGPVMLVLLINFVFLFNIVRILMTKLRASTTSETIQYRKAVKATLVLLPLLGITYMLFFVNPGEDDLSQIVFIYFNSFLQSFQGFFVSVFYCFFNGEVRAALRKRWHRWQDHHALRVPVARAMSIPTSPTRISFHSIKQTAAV

Regarding `CC[C@H](C)[C@H](NC(=O)[C@@H](NC(=O)[C@H](CC(=O)O)NC(=O)[C@H](CC(C)C)NC(=O)[C@H](CC(C)C)NC(=O)[C@H](CC(C)C)NC(=O)[C@H](CCCNC(=N)N)NC(=O)[C@H](CC(N)=O)NC(=O)[C@H](CC(N)=O)NC(=O)[C@H](C)NC(=O)[C@H](C)NC(=O)[C@H](CCC(N)=O)NC(=O)[C@H](CCC(N)=O)NC(=O)[C@H](CCCCN)NC(=O)[C@H](CCC(=O)O)NC(=O)[C@H](CCCCN)NC(=O)[C@H](CCC(=O)O)NC(=O)[C@H](CCC(N)=O)NC(=O)[C@H](CCCCN)NC(=O)[C@H](CCC(=O)O)NC(=O)[C@@H](NC(=O)[C@H](CCC(=O)O)NC(=O)[C@@H](NC(=O)[C@H](CCSC)NC(=O)[C@H](CCCCN)NC(=O)[C@H](CCCNC(=N)N)NC(=O)[C@H](CC(C)C)NC(=O)[C@H](CC(C)C)NC(=O)[C@H](Cc1c[nH]cn1)NC(=O)[C@H](N)Cc1ccccc1)[C@@H](C)CC)[C@@H](C)CC)[C@@H](C)O)C(N)=O` [[DPhe^11, His^12]Svg(11-40)], the “inhibitory potency towards rCRFR1” value at rCRFR1 is 15 % of the potency of astressin. Further, at CRFR2α, the “CRF-mediated behavioral effects in the lateral septum” value was “inhibited”.

B1: [^125I-Tyr^0]Svg (peptide)
peptide: YZGPPISIDLSLELLRKMIEIEKQEKEKQQAANNRLLLDTI
modifications: 125I-iodinated Tyr at position 0
Consider B1, for which the specific binding in experiment [1] was 94%.

B2: ovine corticotropin-releasing factor (oCRF) (peptide)
peptide: SQEPPISLDLTFHLLREVLEMTKADQLAQQAHSNRKLLDIA
modifications: ends and bridges not checked
notes: Synthetic peptide (Fmoc chemistry on TentaGel S RAM resin); also called compound 1
Regarding B2, the “EC50, cAMP accumulation in HEK-rCRFR1 cells” value in [2] turned out to be 0.41 nM. Besides, the “rel. IA (relative intrinsic activity), cAMP production, HEK-rCRFR1 cells” value (“rel. IA (relative intrinsic activity)” for short) in experiment [3] was 1 relative, oCRF = 1.00. The “% IA (intrinsic activity), cAMP production, HEK-rCRFR1 cells” value in [4] was 1 relative, oCRF = 1.00. Also, the Selectivity in experiment [5] was 0.002.

B3: [Tyr^11, His^12]Svg(11-40) (peptide)
peptide: YHLLRKMIEIEKQEKEKQQAANNRLLLDTI
modifications: ends and bridges not checked
notes: also called compound 18
For B3, the “fold decrease of binding affinity against antisauvagine-30 (compound 11)” value in experiment [6] fell in the range of 1.4 to 5.9 fold. Further, in experiment [3], the “rel. IA (relative intrinsic activity)” value is 0.03 relative, oCRF = 1.00 and the “rel. pot. (relative potency), inhibition of oCRF-stimulated cAMP production, HEK-rCRFR1 cells” value was 0.79 relative, oCRF = 1.00. Further, the affinity in experiment [7], expressed as Kd, was 221 nM. In addition, the Selectivity in [5] is 31.6.

B4: [Tyr^11]Svg(11-40) (peptide)
peptide: YELLRKMIEIEKQEKEKQQAANNRLLLDTI
modifications: ends and bridges not checked
notes: also called compound 19
Consider B4, for which the fold decrease of binding affinity against [DPhe^11]Svg(11-40) (compound 12) in experiment [8] lay in the range of 1.4 to 5.9 fold. In addition, in experiment [3], the “rel. IA (relative intrinsic activity)” value is 0.09 relative, oCRF = 1.00 and the “rel. pot. (relative potency), inhibition of oCRF-stimulated cAMP production, HEK-rCRFR1 cells” value was 0.82 relative, oCRF = 1.00. This molecule displayed a Kd in experiment [7] of 977 nM. The same molecule displayed a Selectivity in [5] of 33.
